Experimental findings from patent publication US20090291879A1 (published 2009) are described below.

Assay [1] concerns the target T1, Integrin α2β1 on human chondrosarcoma cells (K9, K105) (human, UniProt P17301 30-1181; P05556 21-798).
T1 construct: whole, on cells; The cells are not engineered; also called integrin α2β1 receptor; β1 integrin
The assay is described as follows: adhesion of K9 cells to coated protein, 1 hour, N-acetylglucosaminidase read-out; receptor as attributed in paragraph 181. On the procedure: To test cell binding, the chondrosarcoma cells or bovine chondrocytes were suspended in PBS containing 0.1% BSA, 25 U/ml collagenase and added to the wells (50,000/well), in the absence or presence of various peptide pools or the synthetic peptides (200, 100, 50, 25, 12.5 μg/ml). Non-adherent cells were removed after 1 hour and adhesion was determined by measuring lysosomal N-acetylglucosaminidase (12). Adhesion and spreading was visualized by light microscopy. In the time studies, k105 cells were allowed to adhere for 30 minutes, unbound cells were removed and medium without serum supplemented with or without peptides (250 μg/ml), β1 integrin antibody (clone P4C10, Gibco BRL), EDTA (5 mM) was added. Cell morphology was visualized by light microscopy after 1, 3 and 20 hours.
48-well tissue culture dishes were coated with 5 μg/ml collagen type II, tissue extracted bovine chondroadherin, human chondroadherin expressed in EBNA cells and human chondroadherin expressed in E. coli and blocked for non-specific binding with BSA. The cells were allowed to adhere for 1 hour at 37° C. Nonadherent cells were removed by washing and adhesion was determined by analyzing lysosomal N-acetylglucosaminidase. Adhesion is expressed in number of cells, 50,000 cells/well were seeded.

Assay [2] has as its target T1, Integrin α2β1 on human chondrosarcoma …. The assay can be described thus: adhesion of k105 cells to coated peptide, light microscopy; receptor as attributed in paragraph 163 and paragraph 181.

T1 sequence (P17301 30-1181, chain 1 of 2): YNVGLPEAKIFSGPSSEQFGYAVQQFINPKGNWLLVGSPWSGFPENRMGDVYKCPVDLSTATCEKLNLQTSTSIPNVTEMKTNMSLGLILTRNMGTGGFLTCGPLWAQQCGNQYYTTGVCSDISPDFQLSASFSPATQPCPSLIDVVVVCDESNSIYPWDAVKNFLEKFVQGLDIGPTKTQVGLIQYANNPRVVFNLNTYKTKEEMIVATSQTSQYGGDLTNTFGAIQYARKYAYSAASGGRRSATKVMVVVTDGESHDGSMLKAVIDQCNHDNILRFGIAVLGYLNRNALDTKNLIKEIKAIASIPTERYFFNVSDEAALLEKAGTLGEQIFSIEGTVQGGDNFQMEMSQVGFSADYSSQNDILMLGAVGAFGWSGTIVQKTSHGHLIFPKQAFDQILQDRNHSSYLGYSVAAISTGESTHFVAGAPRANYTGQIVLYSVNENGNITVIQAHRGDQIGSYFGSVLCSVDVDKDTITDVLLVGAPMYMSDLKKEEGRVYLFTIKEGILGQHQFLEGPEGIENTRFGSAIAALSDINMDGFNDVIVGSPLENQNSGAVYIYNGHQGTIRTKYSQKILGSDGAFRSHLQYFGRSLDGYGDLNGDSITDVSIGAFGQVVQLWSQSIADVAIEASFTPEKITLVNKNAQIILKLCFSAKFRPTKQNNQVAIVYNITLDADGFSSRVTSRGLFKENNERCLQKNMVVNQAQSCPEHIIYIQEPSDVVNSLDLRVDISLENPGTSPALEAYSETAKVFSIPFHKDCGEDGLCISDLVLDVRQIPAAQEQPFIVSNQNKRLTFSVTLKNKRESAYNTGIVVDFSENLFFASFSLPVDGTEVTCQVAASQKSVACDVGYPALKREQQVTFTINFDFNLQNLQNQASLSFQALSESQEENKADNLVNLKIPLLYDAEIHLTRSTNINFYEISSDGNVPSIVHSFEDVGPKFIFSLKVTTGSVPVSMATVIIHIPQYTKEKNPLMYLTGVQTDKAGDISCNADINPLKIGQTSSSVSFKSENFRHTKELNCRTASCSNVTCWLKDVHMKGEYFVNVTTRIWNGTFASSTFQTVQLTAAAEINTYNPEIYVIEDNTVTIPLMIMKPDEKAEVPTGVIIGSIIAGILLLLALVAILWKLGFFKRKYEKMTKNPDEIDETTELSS
T1 sequence (P05556 21-798, chain 2 of 2): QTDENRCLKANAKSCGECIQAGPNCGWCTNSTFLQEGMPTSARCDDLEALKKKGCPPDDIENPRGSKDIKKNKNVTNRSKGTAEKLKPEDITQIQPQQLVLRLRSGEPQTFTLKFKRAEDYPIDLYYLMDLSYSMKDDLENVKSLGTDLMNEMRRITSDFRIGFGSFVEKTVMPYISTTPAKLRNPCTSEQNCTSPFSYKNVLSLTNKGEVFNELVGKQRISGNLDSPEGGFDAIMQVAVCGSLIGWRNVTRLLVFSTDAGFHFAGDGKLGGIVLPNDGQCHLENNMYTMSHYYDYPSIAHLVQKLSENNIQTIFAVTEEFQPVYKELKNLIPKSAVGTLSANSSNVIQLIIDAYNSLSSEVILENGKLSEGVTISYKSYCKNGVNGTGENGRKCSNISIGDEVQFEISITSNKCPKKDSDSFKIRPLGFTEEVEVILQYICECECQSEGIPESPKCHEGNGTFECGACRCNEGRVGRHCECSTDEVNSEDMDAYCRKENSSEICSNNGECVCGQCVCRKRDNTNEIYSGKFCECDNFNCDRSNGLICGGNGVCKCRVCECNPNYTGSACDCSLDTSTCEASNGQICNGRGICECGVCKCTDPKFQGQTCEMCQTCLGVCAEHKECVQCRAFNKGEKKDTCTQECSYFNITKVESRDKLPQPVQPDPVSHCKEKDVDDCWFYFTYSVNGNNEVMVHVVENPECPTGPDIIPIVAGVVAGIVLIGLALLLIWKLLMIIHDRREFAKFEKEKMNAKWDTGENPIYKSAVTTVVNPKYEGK

B1: Tissue extracted bovine chondroadherin (ligand, UniProt Q27972 25-361, looked up)
chain: CPQNCHCHSDLQHVICDKVGLQKIPKVSEKTKLLNLQRNNFPVLATNSFRAMPNLVSLHLQHCQIREVAAGAFRGLKQLIYLYLSHNDIRVLRAGAFDDLTELTYLYLDHNKVTELPRGLLSPLVNLFILQLNNNKIRELRSGAFQGAKDLRWLYLSENSLSSLQPGALDDVENLAKFYLDRNQLSSYPSAALSKLRVVEELKLSHNPLKSIPDNAFQSFGRYLETLWLDNTNLEKFSDGAFLGVTTLKHVHLENNRLHQLPSNFPFDSLETLTLTNNPWKCTCQLRGLRRWLEAKTSRPDATCASPAKFRGQHIRDTDAFRGCKFPTKRSKKAGRH
B1: the binding result in assay [1] is recorded as “binds”.

B2: Synthetic peptide CQLRGLRRWLEAK (12-mer chondroadherin peptide plus an N-terminal cysteine) (peptide)
peptide: CQLRGLRRWLEAK
notes: also called 12-mer peptide
On to B2, for which the binding result in assay [2] was “binds”.
